The text below walks through data of patent publication US20100129861.

The target in the data set is 43S complexes containing 40S subunits and eIFs 2/3/1/1A.

B1: DHX29 (purified native DHX29, DExH-box helicase) (protein)
chain: MGGKNKKHKAPAAAVVRAAVSASRAKSAEAGIAGEAQSKKPVSRPATAAAAAAGSREPRVKQGPKIYSFNSTNDSSGPANLDKSILKVVINNKLEQRIIGVINEHKKQNNDKGMISGRLTAKKLQDLYMALQAFSFKTKDIEDAMTNTLLYGGDLHSALDWLCLNLSDDALPEGFSQEFEEQQPKSRPKFQSPQIQATISPPLQPKTKTYEEDPKSKPKKEEKNMEVNMKEWILRYAEQQNEEEKNENSKSLEEEEKFDPNERYLHLAAKLLDAKEQAATFKLEKNKQGQKEAQEKIRKFQREMETLEDHPVFNPAMKISHQQNERKKPPVATEGESALNFNLFEKSAAATEEEKDKKKEPHDVRNFDYTARSWTGKSPKQFLIDWVRKNLPKSPNPSFEKVPVGRYWKCRVRVIKSEDDVLVVCPTILTEDGMQAQHLGATLALYRLVKGQSVHQLLPPTYRDVWLEWSDAEKKREELNKMETNKPRDLFIAKLLNKLKQQQQQQQQHSENKRENSEDPEESWENLVSDEDFSALSLESANVEDLEPVRNLFRKLQSTPKYQKLLKERQQLPVFKHRDSIVETLKRHRVVVVAGETGSGKSTQVPHFLLEDLLLNEWEASKCNIVCTQPRRISAVSLANRVCDELGCENGPGGRNSLCGYQIRMESRACESTRLLYCTTGVLLRKLQEDGLLSNVSHVIVDEVHERSVQSDFLLIILKEILQKRSDLHLILMSATVDSEKFSTYFTHCPILRISGRSYPVEVFHLEDIIEETGFVLEKDSEYCQKFLEEEEEVTINVTSKAGGIKKYQEYIPVQTGAHADLNPFYQKYSSRTQHAILYMNPHKINLDLILELLAYLDKSPQFRNIEGAVLIFLPGLAHIQQLYDLLSNDRRFYSERYKVIALHSILSTQDQAAAFTLPPPGVRKIVLATNIAETGITIPDVVFVIDTGRTKENKYHESSQMSSLVETFVSKASALQRQGRAGRVRDGFCFRMYTRERFEGFMDYSVPEILRVPLEELCLHIMKCNLGSPEDFLSKALDPPQLQVISNAMNLLRKIGACELNEPKLTPLGQHLAALPVNVKIGKMLIFGAIFGCLDPVATLAAVMTEKSPFTTPIGRKDEADLAKSALAMADSDHLTIYNAYLGWKKARQEGGYRSEITYCRRNFLNRTSLLTLEDVKQELIKLVKAAGFSSSTTSTSWEGNRASQTLSFQEIALLKAVLVAGLYDNVGKIIYTKSVDVTEKLACIVETAQGKAQVHPSSVNRDLQTHGWLLYQEKIRYARVYLRETTLITPFPVLLFGGDIEVQHRERLLSIDGWIYFQAPVKIAVIFKQLRVLIDSVLRKKLENPKMSLENDKILQIITELIKTENN
B1: the NTPase activity entry was “DHX29's NTPase activity was strongly stimulated by 43S complexes, whereas stimulation by single-stranded RNA was low”.
